2 substances from publication PMC3506622 can be followed below.

The target of test [1] is bcPadR1, PadR-like transcriptional regulator from Bacillus cereus ATCC 14579 (product of gene locus BC4206) (Bacillus cereus ATCC 14579). Briefly: SEC; analytical gel filtration, Superdex 200 PC 3.2/30; 20 mM Tris-HCl pH 8.0, 200 mM NaCl, 1 mM EDTA, 1 mM dithiothreitol; apparent molecular weight against five marker proteins. In general terms: In gel filtration, larger molecules generally elute earlier.

Test [2] deals with bcPadR2, PadR-like transcriptional regulator from Bacillus cereus ATCC 10987 (product of gene locus BCE3449) (Bacillus cereus ATCC 10987). The test is described as above.

Broadly, the stoichiometry N is the number of molecules, sites or subunits per partner or assembly. For “bcPadR1, PadR-like transcriptional regulator from Bacillus cereus ATCC 14579 (product of gene locus BC4206) (natural protein)”, the stoichiometry N in test [1] stood at 2.

In the case of “bcPadR2, PadR-like transcriptional regulator from Bacillus cereus ATCC 10987 (product of gene locus BCE3449) (natural protein)”, the stoichiometry N in test [2] was determined as 2.
